Results as given in patent publication US20260207767A1 (ANAVEON, published 2026).
Each block holds one binder with its values, some of them ahead of it.

Key:
[1] = biological target: human PD-1 expressed on cells (human, UniProt Q15116 25-288); experiment: cell-based or functional assay
[2] = biological target: T1, IL-2R CD122-CD132 on Jurkat-PD1+CD122+ cells (UniProt P14784 27-551; P31785 23-369); experiment: cell-based or functional assay
T1 sequence (looked up) 1: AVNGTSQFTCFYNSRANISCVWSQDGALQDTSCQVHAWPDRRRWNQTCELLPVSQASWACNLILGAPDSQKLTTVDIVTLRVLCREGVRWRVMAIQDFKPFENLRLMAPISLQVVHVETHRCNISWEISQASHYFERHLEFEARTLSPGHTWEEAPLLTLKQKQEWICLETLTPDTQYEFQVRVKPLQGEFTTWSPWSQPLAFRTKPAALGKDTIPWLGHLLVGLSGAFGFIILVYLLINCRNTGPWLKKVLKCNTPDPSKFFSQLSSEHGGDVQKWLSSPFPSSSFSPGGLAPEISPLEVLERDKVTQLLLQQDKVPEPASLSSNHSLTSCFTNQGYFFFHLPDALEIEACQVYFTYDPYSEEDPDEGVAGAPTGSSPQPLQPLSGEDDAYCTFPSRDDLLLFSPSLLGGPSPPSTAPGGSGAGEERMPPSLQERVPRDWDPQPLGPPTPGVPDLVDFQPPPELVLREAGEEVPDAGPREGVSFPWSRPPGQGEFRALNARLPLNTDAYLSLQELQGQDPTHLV
T1 sequence (looked up) 2: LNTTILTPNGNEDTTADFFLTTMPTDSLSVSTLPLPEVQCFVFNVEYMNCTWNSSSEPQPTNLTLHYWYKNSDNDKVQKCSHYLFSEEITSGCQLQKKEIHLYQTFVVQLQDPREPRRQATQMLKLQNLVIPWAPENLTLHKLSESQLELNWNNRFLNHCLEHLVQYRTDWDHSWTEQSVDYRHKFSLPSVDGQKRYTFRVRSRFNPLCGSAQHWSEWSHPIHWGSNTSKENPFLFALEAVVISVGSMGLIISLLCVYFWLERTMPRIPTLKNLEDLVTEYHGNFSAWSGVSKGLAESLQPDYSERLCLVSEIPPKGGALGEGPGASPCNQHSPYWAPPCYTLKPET

[3] = biological target: T2, recombinant hPD-1 (construct not stated) (human, UniProt Q15116 25-167, limits assumed); experiment: BLI, supernatants
T2 construct: also called huPD-1; Human PD1
Description: In order to remove an N-glycosylation site present in the CDR-L1, mutations were inserted in the CDR-L1 of 21A08. The first asparagine ([…], N) in CDR-L1, was replaced by a serine (Ser, S), Glutamine (Gln, Q), or Alanine (Ala, A).

[4] = biological target: T3, cynoPD-1 His (AcroBiosystems PD1-C5223) (cynomolgus monkey, UniProt B0LAJ3 25-170); experiment: SPR, Ab captured, PD-1 analyte
T3 construct: also called cPD-1; cynomolgus PD-1 His-tagged
Experimental: (§1) 10 mM glycine (pH 1.5) as regeneration buffer was injected to flow cells following every dissociation phase.

hPD-1 His-tagged = biological target: T4, hPD-1 His-tagged (human, UniProt Q15116 25-167); experiment: SPR, Ab captured, PD-1 analyte
T4 construct: also called recombinant hPD-1 (AcroBio)
Experimental: as §1

Chain of human PD-1 expressed on cells (Q15116 25-288): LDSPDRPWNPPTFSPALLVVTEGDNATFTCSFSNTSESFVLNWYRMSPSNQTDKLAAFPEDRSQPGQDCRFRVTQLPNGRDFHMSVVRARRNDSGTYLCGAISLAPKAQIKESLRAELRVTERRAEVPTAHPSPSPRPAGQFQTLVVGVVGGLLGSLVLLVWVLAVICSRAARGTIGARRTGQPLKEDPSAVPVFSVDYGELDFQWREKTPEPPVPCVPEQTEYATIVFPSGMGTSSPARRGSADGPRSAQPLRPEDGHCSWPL
T3 sequence (B0LAJ3 entry or part of it limits assumed): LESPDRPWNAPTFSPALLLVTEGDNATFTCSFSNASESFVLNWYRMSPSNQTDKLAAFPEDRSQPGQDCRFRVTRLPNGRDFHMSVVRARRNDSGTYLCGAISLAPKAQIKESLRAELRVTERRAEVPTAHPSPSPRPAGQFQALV
T4 sequence (Q15116 25-167 limits assumed): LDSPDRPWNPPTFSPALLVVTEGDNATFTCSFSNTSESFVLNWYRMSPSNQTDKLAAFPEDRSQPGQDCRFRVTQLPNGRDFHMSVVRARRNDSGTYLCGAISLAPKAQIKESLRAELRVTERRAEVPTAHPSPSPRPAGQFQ
T2 sequence (Q15116 25-167 limits assumed): as above

EC50 of NZA596, % pSTAT5+ Jurkat PD-1+CD122+ cells, pre-incubation with Medium [1]: 0.85 nM
EC50 of NZA596, pre-incubation with 21A08Ap1 [1]: 15.6 nM
EC50 of NZA596, pre-incubation with Cemiplimab [1]: 1.67 nM
EC50 of NZA596, pre-incubation with Cetrelimab [1]: 0.76 nM
EC50 of NZA596, pre-incubation with Dostarlimab (m102) [1]: 0.96 nM
EC50 of NZA596, pre-incubation with Ezabenlimab [1]: 1.71 nM
EC50 of NZA596, pre-incubation with Nivolumab [1]: 1.1 nM
EC50 of NZA596, pre-incubation with Pembrolizumab [1]: 1.02 nM
EC50 of NZA596, pre-incubation with Tislelizumab [1]: 1.47 nM
EC50 of NZA596, pre-incubation with Toripalimab [1]: 0.65 nM
EC50 of NZA596, pre-incubation with Zeluvalimab [1]: 0.88 nM
fold reduction in NZA596 Potency, pre-incubation with 21A08Ap1 [1]: 18.2 fold
fold reduction in NZA596 Potency, pre-incubation with Cemiplimab [1]: 1.95 fold
fold reduction in NZA596 Potency, pre-incubation with Cetrelimab [1]: 0.89 fold
fold reduction in NZA596 Potency, pre-incubation with Dostarlimab (m102) [1]: 1.12 fold
fold reduction in NZA596 Potency, pre-incubation with Ezabenlimab [1]: 2 fold
fold reduction in NZA596 Potency, pre-incubation with Nivolumab [1]: 1.28 fold
fold reduction in NZA596 Potency, pre-incubation with Pembrolizumab [1]: 1.2 fold
fold reduction in NZA596 Potency, pre-incubation with Tislelizumab [1]: 1.72 fold
fold reduction in NZA596 Potency, pre-incubation with Toripalimab [1]: 0.77 fold
fold reduction in NZA596 Potency, pre-incubation with Zeluvalimab [1]: 1.03 fold
EC50 (read off the curve), % pSTAT5+ of CFSE+ cells pre-blocked with Nivolumab [panel CFSE+ cells] [2]: ~0.9 nM
EC50 (read off the curve), % pSTAT5+ of CFSE+ cells pre-blocked with Pembrolizumab [panel CFSE+ cells] [2]: ~0.9 nM
EC50 (read off the curve), % pSTAT5+ of CFSE+ cells; No blocking [panel CFSE+ cells] [2]: ~0.6 nM
EC50 (read off the curve), % pSTAT5+ of CTV+ cells; No blocking [panel CTV+ cells] [2]: ~0.5 nM
EC50 (read off the curve), % pSTAT5+ of CTV+ cells; mixed with CFSE+ cells pre-blocked with Nivolumab [panel CTV+ cells] [2]: ~0.6 nM
EC50 (read off the curve), % pSTAT5+ of CTV+ cells; mixed with CFSE+ cells pre-blocked with Parental mAb [panel CTV+ cells] [2]: ~0.6 nM
EC50 (read off the curve), % pSTAT5+ of CTV+ cells; mixed with CFSE+ cells pre-blocked with Pembrolizumab [panel CTV+ cells] [2]: ~0.6 nM
B1: NZA596 (bispecific antibody, human IgG1, kappa, lambda, L234A L235A)
heavy 1: EVQLLESGGGLVQPGGSLRLSCAASGFTFSINAMTWVRQAPGKGLEWVSTISGSGFSTYYADSLKGRFTISRDNSKNTLYLQMNSLRAEDTAVYYCAKEVYGDYWGQGTLVTVSSASTKGPSVFPLAPSSKSTSGGTAALGCLVKDYFPEPVTVSWNSGALTSGVHTFPAVLQSSGLYSLSSVVTVPSSSLGTQTYICNVNHKPSNTKVDKRVEPKSCDKTHTCPPCPAPEAAGGPSVFLFPPKPKDTLMISRTPEVTCVVVDVSHEDPEVKFNWYVDGVEVHNAKTKPREEQYNSTYRVVSVLTVLHQDWLNGKEYKCKVSNKALAAPIEKTISKAKGQPREPQVCTLPPSREEMTKNQVSLSCAVKGFYPSDIAVEWESNGQPENNYKTTPPVLDSDGSFFLVSKLTVDKSRWQQGNVFSCSVMHEALHNHYTQKSLSLSPGK
light 1: not shown
heavy 2: EVQLVQSGAEVKKPGESLKISCKGSGYAFTNYLIEWVRQMPGKGLEWMGVINPGSGGTNYNEKFKGQVTISADKSISTAYLQWSSLKASDTAMYYCARWRGEGYYAYFDVWGQGTTVTVSSASTKGPSVFPLAPSSKSTSGGTAALGCLVKDYFPEPVTVSWNSGALTSGVHTFPAVLQSSGLYSLSSVVTVPSSSLGTQTYICNVNHKPSNTKVDKRVEPKSCDKTHTCPPCPAPEAAGGPSVFLFPPKPKDTLMISRTPEVTCVVVDVSHEDPEVKFNWYVDGVEVHNAKTKPREEQYNSTYRVVSVLTVLHQDWLNGKEYKCKVSNKALAAPIEKTISKAKGQPREPQVYTLPPCREEMTKNQVSLWCLVKGFYPSDIAVEWESNGQPENNYKTTPPVLDSDGSFFLYSKLTVDKSRWQQGNVFSCSVMHEALHNHYTQKSLSLSPGK
light 2: not shown

Kd [3]: 2.47 nM
koff [3]: 0.000184 s⁻¹
B2: 21A08S (antibody, V domains shown)
VH: EVQLLESGGGLVQPGGSLRLSCAASGFTFSINAMTWVRQAPGKGLEWVSTISGSGFSTYYADSLKGRFTISRDNSKNTLYLQMNSLRAEDTAVYYCAKEVYGDYWGQGTLVTVSS
VL: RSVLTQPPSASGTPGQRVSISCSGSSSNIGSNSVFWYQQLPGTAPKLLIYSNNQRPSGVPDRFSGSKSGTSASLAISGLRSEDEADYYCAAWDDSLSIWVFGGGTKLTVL
notes: position not given; tested as supernatant

Kd [3]: 1.81 nM
koff [3]: 0.000181 s⁻¹
Kd [4]: 1.7 nM
koff [4]: 9.6e-05 s⁻¹
kon [4]: 56000 M⁻¹ s⁻¹
Kd (hPD-1 His-tagged): < 0.16 nM
koff (hPD-1 His-tagged): < 1e-05 s⁻¹
kon (hPD-1 His-tagged): 63000 M⁻¹ s⁻¹
B3: 21A08A (antibody, V domains shown)
VH: EVQLLESGGGLVQPGGSLRLSCAASGFTFSINAMTWVRQAPGKGLEWVSTISGSGFSTYYADSLKGRFTISRDNSKNTLYLQMNSLRAEDTAVYYCAKEVYGDYWGQGTLVTVSS
VL: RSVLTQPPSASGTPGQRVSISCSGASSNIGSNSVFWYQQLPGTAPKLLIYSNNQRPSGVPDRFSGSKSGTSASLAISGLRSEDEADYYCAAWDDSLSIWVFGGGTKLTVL
notes: position not given
